Here are results for one substance from paper doi:10.1101/585463.

pKd: −log10 of the molar value.

The target in assay [1] is non-glycosylated CmeA (g0CmeA), periplasmic fusion protein of the CmeABC multidrug efflux pump (Campylobacter jejuni) (UniProt Q0PBE3). As to the kind of experiment: SPR.
For assay [2], the target named is fully glycosylated CmeA (g2CmeA) (Campylobacter jejuni) (UniProt Q0PBE3). As to the kind of experiment: SPR.

With “CmeC, outer membrane associated channel of the CmeABC multidrug efflux pump (natural protein)”, in assay [1], the pKd is 7.77, the koff is 0.0009 s⁻¹ and the kon was found to be 50000 M⁻¹ s⁻¹. For the same substance, in assay [2], the negative-log Kd (pKd) was 8.30, the koff was 0.00075 s⁻¹ and the kon was 150000 M⁻¹ s⁻¹.
